Results from the RNAGym collection of RNA variant scans (doi:10.1093/molbev/msab373).

B1: Azoarcus group I ribozyme (parent)
chain: GUGCCUUGCGCCGGGAAACCACGCAAGGGAUGGUGUCAAAUUCGGCGAAACCUAAGCGCCCGCCCGGGCGUAUGGCAACGCCGAGCCAAGCUUCGGCGCCUGCGCCGAUGAAGGUGUAGAGACUAGACGGCACCCACCUAAGGCAAACGCUAUGGUGAAGGCAUAGUCCAGGGAGUGGCGAAAGUCACACAAACCGG

Variants of: B1
Assay: reverse-splicing fitness (ratio to wild type); higher = more active; in vitro selection; Mg2+ level not given
How it was run: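 An in vitro group I ribozyme library with randomized positions was T7-transcribed and gel-purified. In triplicate, 10 pmol RNA in EPPS pH 7.5 was reacted with 50 pmoles of a 30-nt RNA substrate for 1 h at 37 °C across several added MgCl2 levels (1–48 mM), then stopped with EDTA. Products were reverse transcribed from a substrate-complementary primer, PCR-amplified and sequenced (HiSeq 4000). Fitness is a variant's read proportion after selection over that before, normalised to wild type.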

Variant	reverse-splicing fitness
A111G A120G A145U C150G C169A U176C	0.0123
A111G A120G A145U C150G C169A U176G	0.00435
A111G A120G A145U C150G C169G	0.0297
A111G A120G A145U C150G C169G U176A	0.00768
A111G A120G A145U C150G C169G U176C	0.00471
A111G A120G A145U C150G C169G U176G	0.00457
A111G A120G A145U C150G C169U	0.0301
A111G A120G A145U C150G C169U U176A	0.0148
A111G A120G A145U C150G C169U U176C	0.0171
A111G A120G A145U C150G C169U U176G	0.00442
A111G A120G A145U C150G U176A	0.0126
A111G A120G A145U C150G U176C	0.0217
A111G A120G A145U C150G U176G	0.00354
A111G A120G A145U C150U	0.19
A111G A120G A145U C150U C169A	0.114
A111G A120G A145U C150U C169A U176A	0.0314
A111G A120G A145U C150U C169A U176C	0.0426
A111G A120G A145U C150U C169A U176G	0.00532
A111G A120G A145U C150U C169G	0.206
A111G A120G A145U C150U C169G U176A	0.0574
A111G A120G A145U C150U C169G U176C	0.0783

Variant	reverse-splicing fitness
A111G A120G A145U C150U C169G U176G	0.00556
A111G A120G A145U C150U C169U	0.157
A111G A120G A145U C150U C169U U176A	0.0647
A111G A120G A145U C150U C169U U176C	0.0675
A111G A120G A145U C150U C169U U176G	0.00675
A111G A120G A145U C150U U176A	0.0608
A111G A120G A145U C150U U176C	0.0782
A111G A120G A145U C150U U176G	0.00788
A111G A120G A145U C169A	0.174
A111G A120G A145U C169A U176A	0.0397
A111G A120G A145U C169A U176C	0.0642
A111G A120G A145U C169A U176G	0.00646
A111G A120G A145U C169G	0.33
A111G A120G A145U C169G U176A	0.0761
A111G A120G A145U C169G U176C	0.106
A111G A120G A145U C169G U176G	0.00712
A111G A120G A145U C169U	0.232
A111G A120G A145U C169U U176A	0.0839
A111G A120G A145U C169U U176C	0.093
A111G A120G A145U C169U U176G	0.0103
A111G A120G A145U U176A	0.0829

Variant	reverse-splicing fitness
A111G A120G A145U U176C	0.116
A111G A120G A145U U176G	0.00952
A111G A120G C150A	0.0324
A111G A120G C150A C169A	0.0242
A111G A120G C150A C169A U176A	0.0205
A111G A120G C150A C169A U176C	0.0244
A111G A120G C150A C169A U176G	0.00486
A111G A120G C150A C169G	0.0355
A111G A120G C150A C169G U176A	0.0259
A111G A120G C150A C169G U176C	0.0343
A111G A120G C150A C169G U176G	0.00566
A111G A120G C150A C169U	0.0298
A111G A120G C150A C169U U176A	0.0272
A111G A120G C150A C169U U176C	0.0286
A111G A120G C150A C169U U176G	0.00819
A111G A120G C150A U176A	0.0188
A111G A120G C150A U176C	0.0301
A111G A120G C150A U176G	0.00663
A111G A120G C150G	0.0248
A111G A120G C150G C169A	0.0164
A111G A120G C150G C169A U176A	0.00862

Variant	reverse-splicing fitness
A111G A120G C150G C169A U176C	0.0116
A111G A120G C150G C169A U176G	0.00604
A111G A120G C150G C169G	0.0259
A111G A120G C150G C169G U176A	0.0075
A111G A120G C150G C169G U176C	0.00503
A111G A120G C150G C169G U176G	0.00386
A111G A120G C150G C169U	0.0264
A111G A120G C150G C169U U176A	0.0138
A111G A120G C150G C169U U176C	0.0166
A111G A120G C150G C169U U176G	0.00593
A111G A120G C150G U176A	0.011
A111G A120G C150G U176C	0.0173
A111G A120G C150G U176G	0.00356
A111G A120G C150U	0.156
A111G A120G C150U C169A	0.0914
A111G A120G C150U C169A U176A	0.0291
A111G A120G C150U C169A U176C	0.0419
A111G A120G C150U C169A U176G	0.00588
A111G A120G C150U C169G	0.177
A111G A120G C150U C169G U176A	0.0529
A111G A120G C150U C169G U176C	0.0735
